Data on ten molecules can be found in patent JP2024028198A (dated 2024).

The target in this assay is ヒトPAD4 (human, UniProt Q9UM07 1-663, limits assumed). The experiment in a line: cell-based or functional assay.
Chain of ヒトPAD4 (Q9UM07 whole entry): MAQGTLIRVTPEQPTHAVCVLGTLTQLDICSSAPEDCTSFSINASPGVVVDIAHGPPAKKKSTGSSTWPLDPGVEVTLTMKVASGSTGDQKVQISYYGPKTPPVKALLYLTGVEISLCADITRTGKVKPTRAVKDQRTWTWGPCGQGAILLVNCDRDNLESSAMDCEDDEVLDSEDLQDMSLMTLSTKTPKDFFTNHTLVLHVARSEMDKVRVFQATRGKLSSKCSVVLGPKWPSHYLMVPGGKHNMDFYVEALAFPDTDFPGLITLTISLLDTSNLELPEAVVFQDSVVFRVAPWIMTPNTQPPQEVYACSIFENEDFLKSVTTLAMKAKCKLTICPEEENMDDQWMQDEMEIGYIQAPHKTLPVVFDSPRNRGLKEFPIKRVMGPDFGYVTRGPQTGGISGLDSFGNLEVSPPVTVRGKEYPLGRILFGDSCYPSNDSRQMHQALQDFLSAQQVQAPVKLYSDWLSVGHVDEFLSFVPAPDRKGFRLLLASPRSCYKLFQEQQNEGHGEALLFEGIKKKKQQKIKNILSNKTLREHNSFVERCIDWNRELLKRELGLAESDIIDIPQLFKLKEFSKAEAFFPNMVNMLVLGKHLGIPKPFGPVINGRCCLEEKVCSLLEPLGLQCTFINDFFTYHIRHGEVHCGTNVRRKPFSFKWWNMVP

B1: 抗PAD4抗体Lib2(4R)-1-47 (antibody, V domains shown)
VH: EVQLLESGGGLVQPGGSLRLSCAASGFTFSTYAMGWVRQAPGKGLEFVAAIRNDGSWTGYGTPYKTRFTISRDNSKNTLYLQMNSLRAEDTAVYYCAKYTGSSGGSIGAWGQGTLVTVSS
VL: SYELTQPPSVSVSPGQTARITCSGGNRNYYYGWYQQKPGQAPVTVIYANDKRPSGIPERFSGSNSGSTTTLTISGVQAEDEADYYCGTATTGKYVFGGGTKLTVLG
For the molecule B1, the “ヒトPAD4酵素阻害活性 IC50 (BAEE citrullination, colorimetric)” value (from here on “ヒトPAD4酵素阻害活性 IC50”) is 9.6 nM.

B2: 抗PAD4抗体4-2-25 (antibody, human IgG1, lambda, V domains shown)
VH: EVQLLESGGGLVQPGGSLRLSCAASGFTFSTYAMGWVRQAPGKGLEFVAAIRNDGSWTGYPPPLKGRFTISRDNSKNTLYLQMSSLRAEDTAVYYCAKYTGSSGGSIGAWGQGTLVTVSS
VL: SYELTQPPSVSVSPGQTARITCSGGNRNYYYGWYQQKPGQAPVTVIYANDKRPSGIPERFSGSNSGSTTTLTISGVQAEDEADYYCGTAYTGKYVFGGGTKLTVLG
On to B2, for which the “ヒトPAD4酵素阻害活性 IC50” value came to 7.6 nM.

B3: ヒト化抗PAD4抗体G8ss (antibody, human IgG1, lambda, V domains shown)
VH: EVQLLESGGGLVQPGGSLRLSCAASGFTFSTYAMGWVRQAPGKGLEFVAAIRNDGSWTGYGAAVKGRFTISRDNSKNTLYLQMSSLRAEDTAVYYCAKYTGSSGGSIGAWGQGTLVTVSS
VL: SYELTQPPSVSVSPGQTARITCSGGNRNYYYGWYQQKPGQAPVTVIYANDKRPSGIPERFSGSNSGSTTTLTISGVQAEDEADYYCGTADTGKYVFGGGTKLTVLG
For B3, the “ヒトPAD4酵素阻害活性 IC50” value was found to be 20.3 nM.

B4: 抗PAD4抗体2-1-47 (antibody, human IgG1, lambda, V domains shown)
VH: EVQLLESGGGLVQPGGSLRLSCAASGFTFSTYAMGWVRQAPGKGLEFVAAIRNDGSWTGYGTPYKTRFTISRDNSKNTLYLQMSSLRAEDTAVYYCAKYTGSSGGSIGAWGQGTLVTVSS
VL: SYELTQPPSVSVSPGQTARITCSGGNRNYYYGWYQQKPGQAPVTVIYANDKRPSGIPERFSGSNSGSTTTLTISGVQAEDEADYYCGTATTGKYVFGGGTKLTVLG
With B4, the “ヒトPAD4酵素阻害活性 IC50” value worked out at 12.2 nM.

B5: 抗PAD4抗体Lib1(6R)-1-39 (antibody, V domains shown)
VH: EVQLLESGGGLVQPGGSLRLSCAASGFTFSTYAMGWVRQAPGKGLEFVAAIRNDGSWTGTSVNAKTRFTISRDNSKNTLYLQMNSLRAEDTAVYYCAKYTGSSGGSIGAWGQGTLVTVSS
VL: SYELTQPPSVSVSPGQTARITCSGGNRNYYYGWYQQKPGQAPVTVIYANDKRPSGIPERFSGSNSGSTTTLTISGVQAEDEADYYCGTATTGKYVFGGGTKLTVLG
For the molecule B5, the “ヒトPAD4酵素阻害活性 IC50” value was found to be 8.7 nM.

B6: 抗PAD4抗体3-1-39 (antibody, human IgG1, lambda, V domains shown)
VH: EVQLLESGGGLVQPGGSLRLSCAASGFTFSTYAMGWVRQAPGKGLEFVAAIRNDGSWTGTSVNAKTRFTISRDNSKNTLYLQMSSLRAEDTAVYYCAKYTGSSGGSIGAWGQGTLVTVSS
VL: SYELTQPPSVSVSPGQTARITCSGGNRNYYYGWYQQKPGQAPVTVIYANDKRPSGIPERFSGSNSGSTTTLTISGVQAEDEADYYCGTATTGKYVFGGGTKLTVLG
Take B6: the “ヒトPAD4酵素阻害活性 IC50” value is 8.8 nM.

B7: ヒト化抗PAD4抗体G8 (antibody, human IgG1, lambda, V domains shown)
VH: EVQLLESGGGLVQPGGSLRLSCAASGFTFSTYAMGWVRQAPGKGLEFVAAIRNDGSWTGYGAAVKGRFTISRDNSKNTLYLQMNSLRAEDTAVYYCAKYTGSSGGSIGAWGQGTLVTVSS
VL: SYELTQPPSVSVSPGQTARITCSGGNRNYYYGWYQQKPGQAPVTVIYANDKRPSGIPERFSGSNSGSTTTLTISGVQAEDEADYYCGTADTGKYVFGGGTKLTVLG
As to B7, the “ヒトPAD4酵素阻害活性 IC50” value came out at 21.6 nM.

B8: 抗PAD4抗体Lib1(6R)-2-37 (antibody, V domains shown)
VH: EVQLLESGGGLVQPGGSLRLSCAASGFTFSTYAMGWVRQAPGKGLEFVAAIRNDGSWTGIGYNQKSRFTISRDNSKNTLYLQMNSLRAEDTAVYYCGKYTGSSGGSIGAWGQGTLVTVSS
VL: SYELTQPPSVSVSPGQTARITCSGGNRNYYYGWYQQKPGQAPVTVIYANDKRPSGIPERFSGSNSGSTTTLTISGVQAEDEADYYCGTALTGKYVFGGGTKLTVLG
Regarding B8, the “ヒトPAD4酵素阻害活性 IC50” value was 13.4 nM.

B9: 抗PAD4抗体Lib2(5R)-2-25 (antibody, V domains shown)
VH: EVQLLESGGGLVQPGGSLRLSCAASGFTFSTYAMGWVRQAPGKGLEFVAAIRNDGSWTGYPPPLKGRFTISRDNSKNTLYLQMNSLRAEDTAVYYCAKYTGSSGGSIGAWGQGTLVTVSS
VL: SYELTQPPSVSVSPGQTARITCSGGNRNYYYGWYQQKPGQAPVTVIYANDKRPSGIPERFSGSNSGSTTTLTISGVQAEDEADYYCGTAYTGKYVFGGGTKLTVLG
Take B9: the “ヒトPAD4酵素阻害活性 IC50” value worked out at 8.3 nM.

B10: 抗PAD4抗体3-2-37 (antibody, human IgG1, lambda, V domains shown)
VH: EVQLLESGGGLVQPGGSLRLSCAASGFTFSTYAMGWVRQAPGKGLEFVAAIRNDGSWTGIGYNQKSRFTISRDNSKNTLYLQMSSLRAEDTAVYYCGKYTGSSGGSIGAWGQGTLVTVSS
VL: SYELTQPPSVSVSPGQTARITCSGGNRNYYYGWYQQKPGQAPVTVIYANDKRPSGIPERFSGSNSGSTTTLTISGVQAEDEADYYCGTALTGKYVFGGGTKLTVLG
Consider B10, for which the “ヒトPAD4酵素阻害活性 IC50” value stood at 15.3 nM.
